Test in all cases: cell-based or functional assay
The target of assay [1] is Non-myristoylated inducible MyD88/CD40 with two FKBP12v36 domains, encoded by pBP0606 (pSFG-k-ΔMyr.iMC.2A-ΔCD19) (human).
Assay [2] deals with FRB.FKBP.ΔC9 encoded by pBP1310 (pSFG.FRB.FKBP.ΔC9.T2A-ΔCD19).
Assay [3] concerns the target Four tandem FRBL domains encoded by pBP0725 (pSH1-FRBl.FRBl′.LS.FRBl″.FRBl′″).
In assay [4] the target is FKBP.FRB.ΔC9 encoded by pBP1311 (pSFG.FKBP.FRB.ΔC9.T2A-ΔCD19).
In assay [5] the target is MyD88-CD40 fused to wild-type FKBP12 and FRBL, encoded by pBP1440.
Assay [6] addresses First generation CD19-CAR fused to two tandem FRBl domains, co-expressed with inducible Caspase-9.
For assay [7], the target named is First generation Her2-CAR fused to two tandem FRBl domains.
Assay [8] deals with FKBP12v36-ΔCaspase-9 encoded by the retroviral vectors pSFG-iC9.T2A-ΔCD19 (pBP0220) and its FRBL derivatives pBP0755, pBP0756, pBP0757 (human).
Assay [9] has as its target Four tandem FKBP12 (Fpk) domains encoded by pBP0722 (pSH1-Fpk-Fpk′.LS.Fpk″.Fpk′″.LS.HA) (Homo sapiens (Human)) (UniProt P62942).

FRB.FKBP.ΔC9 encoded by pBP1310 (pSFG.FRB.FKBP.ΔC9.T2A-ΔCD19), sequence (chain): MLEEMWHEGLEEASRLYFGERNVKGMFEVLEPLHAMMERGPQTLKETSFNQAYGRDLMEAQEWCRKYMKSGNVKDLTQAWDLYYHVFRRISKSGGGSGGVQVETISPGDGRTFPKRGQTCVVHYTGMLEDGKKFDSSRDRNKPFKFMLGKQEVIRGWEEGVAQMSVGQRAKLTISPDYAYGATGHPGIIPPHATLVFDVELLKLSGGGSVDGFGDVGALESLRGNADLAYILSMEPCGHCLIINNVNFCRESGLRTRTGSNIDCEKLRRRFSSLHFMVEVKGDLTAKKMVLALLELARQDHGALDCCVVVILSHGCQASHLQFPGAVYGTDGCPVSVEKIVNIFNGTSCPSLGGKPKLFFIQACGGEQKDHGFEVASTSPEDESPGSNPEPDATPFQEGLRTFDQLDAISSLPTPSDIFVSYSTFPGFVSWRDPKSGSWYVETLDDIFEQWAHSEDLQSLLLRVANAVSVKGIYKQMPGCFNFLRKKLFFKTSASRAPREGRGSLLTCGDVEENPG
FKBP.FRB.ΔC9 encoded by pBP1311 (pSFG.FKBP.FRB.ΔC9.T2A-ΔCD19), sequence (chain): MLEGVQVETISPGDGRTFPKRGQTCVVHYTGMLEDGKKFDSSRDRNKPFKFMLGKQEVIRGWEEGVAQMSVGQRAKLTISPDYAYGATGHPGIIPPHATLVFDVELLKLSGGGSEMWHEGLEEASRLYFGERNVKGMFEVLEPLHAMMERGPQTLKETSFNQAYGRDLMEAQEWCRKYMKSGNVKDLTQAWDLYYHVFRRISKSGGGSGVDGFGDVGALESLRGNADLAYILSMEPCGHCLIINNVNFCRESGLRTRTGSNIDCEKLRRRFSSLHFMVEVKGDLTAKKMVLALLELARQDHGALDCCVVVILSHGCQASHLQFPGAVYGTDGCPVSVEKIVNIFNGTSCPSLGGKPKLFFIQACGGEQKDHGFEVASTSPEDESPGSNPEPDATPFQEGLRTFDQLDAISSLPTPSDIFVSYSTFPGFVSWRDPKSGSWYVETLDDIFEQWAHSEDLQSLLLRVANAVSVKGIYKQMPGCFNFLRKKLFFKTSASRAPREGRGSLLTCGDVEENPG
Four tandem FRBL domains encoded by pBP0725 (pSH1-FRBl.FRBl′.LS.FRBl″.FRBl′″), sequence (chain, as listed by the source limits assumed): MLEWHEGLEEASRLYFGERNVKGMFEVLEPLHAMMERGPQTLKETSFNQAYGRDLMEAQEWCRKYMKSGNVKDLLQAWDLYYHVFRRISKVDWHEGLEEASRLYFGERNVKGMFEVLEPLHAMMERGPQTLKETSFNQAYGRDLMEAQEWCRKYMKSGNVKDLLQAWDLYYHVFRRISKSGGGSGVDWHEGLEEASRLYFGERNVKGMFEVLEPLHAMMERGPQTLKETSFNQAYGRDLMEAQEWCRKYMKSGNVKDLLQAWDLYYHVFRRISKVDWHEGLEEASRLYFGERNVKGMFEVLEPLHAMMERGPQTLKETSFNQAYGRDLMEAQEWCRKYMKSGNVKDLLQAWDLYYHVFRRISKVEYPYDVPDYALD
MyD88-CD40 fused to wild-type FKBP12 and FRBL, encoded by pBP1440, sequence (chain): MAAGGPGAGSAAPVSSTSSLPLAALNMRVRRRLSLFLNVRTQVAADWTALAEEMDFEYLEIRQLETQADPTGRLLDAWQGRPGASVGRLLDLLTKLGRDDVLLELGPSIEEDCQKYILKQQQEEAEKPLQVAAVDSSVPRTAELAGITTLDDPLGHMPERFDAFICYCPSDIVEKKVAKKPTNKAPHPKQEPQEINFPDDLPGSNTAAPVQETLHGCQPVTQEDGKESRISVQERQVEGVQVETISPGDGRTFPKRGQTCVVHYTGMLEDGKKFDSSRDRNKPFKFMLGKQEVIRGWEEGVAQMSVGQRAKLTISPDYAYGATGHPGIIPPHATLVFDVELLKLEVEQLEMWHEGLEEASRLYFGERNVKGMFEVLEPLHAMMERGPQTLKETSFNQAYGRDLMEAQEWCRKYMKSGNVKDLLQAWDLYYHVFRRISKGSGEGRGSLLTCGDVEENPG
Two FRBL domains fused to ΔCaspase-9, encoded by pBP0668 (pSFG-FRBlx2.Caspase9.2A-Q.8stm.CD3zeta), sequence (chain): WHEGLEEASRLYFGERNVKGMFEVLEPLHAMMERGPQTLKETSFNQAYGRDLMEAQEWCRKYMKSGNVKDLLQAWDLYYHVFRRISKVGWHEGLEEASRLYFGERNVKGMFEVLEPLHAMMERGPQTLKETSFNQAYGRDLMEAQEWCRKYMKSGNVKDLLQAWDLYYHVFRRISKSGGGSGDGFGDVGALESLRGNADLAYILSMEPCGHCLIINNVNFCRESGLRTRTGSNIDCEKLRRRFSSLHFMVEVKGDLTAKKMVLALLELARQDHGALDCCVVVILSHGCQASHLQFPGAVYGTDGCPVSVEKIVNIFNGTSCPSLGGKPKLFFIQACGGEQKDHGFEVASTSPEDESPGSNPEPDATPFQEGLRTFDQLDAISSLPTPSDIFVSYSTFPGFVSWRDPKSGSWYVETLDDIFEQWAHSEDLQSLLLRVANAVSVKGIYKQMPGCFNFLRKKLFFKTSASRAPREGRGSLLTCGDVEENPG
Non-myristoylated inducible MyD88/CD40 with two FKBP12v36 domains, encoded by pBP0606 (pSFG-k-ΔMyr.iMC.2A-ΔCD19) (human), sequence (chain, as listed by the source mutant limits assumed): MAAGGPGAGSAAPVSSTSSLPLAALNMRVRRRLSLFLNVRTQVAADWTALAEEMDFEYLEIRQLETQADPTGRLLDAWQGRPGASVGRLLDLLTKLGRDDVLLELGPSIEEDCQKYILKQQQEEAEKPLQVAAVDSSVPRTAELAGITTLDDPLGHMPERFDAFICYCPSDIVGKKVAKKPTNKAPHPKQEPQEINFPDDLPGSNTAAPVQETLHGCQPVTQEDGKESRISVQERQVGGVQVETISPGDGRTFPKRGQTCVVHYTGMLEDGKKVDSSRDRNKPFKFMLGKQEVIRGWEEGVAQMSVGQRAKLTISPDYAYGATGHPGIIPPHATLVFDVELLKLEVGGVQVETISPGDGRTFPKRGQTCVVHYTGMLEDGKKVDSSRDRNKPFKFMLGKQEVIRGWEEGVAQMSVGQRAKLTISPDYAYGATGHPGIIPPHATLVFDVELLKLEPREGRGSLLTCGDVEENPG

On to “Two FRBL domains fused to ΔCaspase-9, encoded by pBP0668 (pSFG-FRBlx2.Caspase9.2A-Q.8stm.CD3zeta)”, for which the rapamycin level giving elimination of CD34+CD19+ doubly transduced primary T cells (flow cytometry, 24 h) in assay [1] was 2 nM.

“FRB.FKBP.ΔC9 encoded by pBP1310 (pSFG.FRB.FKBP.ΔC9.T2A-ΔCD19)”: in assay [2], the lowest rapamycin concentration with high activity (caspase 3/7 IncuCyte assay and SRα-SEAP assay), transfected 293 cells stood at 100 pM.

Substance “FKBP12v36-ΔCaspase-9 fusion encoded by pBP0044 (pSH1-iCaspase9wt)” showed an IC50 of rapamycin or C7-isopropoxy-rapamycin for loss of constitutive SRα-SEAP reporter activity (cell death), transfected 293 cells in assay [3] of 3 nM.

In turn, “FKBP.FRB.ΔC9 encoded by pBP1311 (pSFG.FKBP.FRB.ΔC9.T2A-ΔCD19)” came in with a lowest rapamycin concentration with high activity (caspase 3/7 IncuCyte assay and SRα-SEAP assay), transfected 293 cells in assay [4] of 100 pM.

Take “MyD88-CD40 fused to wild-type FKBP12 and FRBL, encoded by pBP1440”: in assay [5], the EC50 of rapamycin or isobutyloxyrapamycin in the NF-κB SeAP reporter assay, transfected 293T cells is < 1 nM.

Regarding “Inducible Caspase-9 (FKBP-tagged Caspase-9) as used in Example 17”, the decrease of constitutive SRα-SEAP activity with rapamycin, transfected 293 cells (% decrease of SEAP activity) in [6] and in assay [7] was 50 throughout.

For “FKBP12v36-ΔCaspase-9 encoded by the retroviral vectors pSFG-iC9.T2A-ΔCD19 (pBP0220) and its FRBL derivatives pBP0755, pBP0756, pBP0757”, in [8], the rapamycin concentration without effect in the SRα-SEAP assay, transfected 293 cells was > 1000 nM.

In assay [9], “FRBL-ΔCaspase-9 fusion encoded by pBP0463 (pSH1-FRBL.dCaspase9.T2A)” showed an IC50 of rapamycin or C7-isopropoxy-rapamycin for loss of constitutive SRα-SEAP reporter activity (cell death), transfected 293 cells of 3 nM.
